Test results taken from article PMC5680793.
pKd: −log10 of the molar value.

Key:
[1] = target: His-tagged mouse FcRn (mouse) (UniProt Q61559); test: BLI
[2] = target: Mouse IgG2b (wild-type) (mouse); test: ITC

fold change of relative kon against wild-type IgG2a [1]	pKd [2]	Substance
2.7 fold		Mouse IgG2a P307T, Q309L (antibody)
	5.59	Z34C peptide
